4 molecules from patent US20240190960A1 (Chugai, published 2024) can be followed below.

Positions count from the first letter of the chain named.

In assay [1] the target is T1, Biotinylated human CD3εδ heterodimer (Fc-fused human CD3ε / Fc-fused human CD3δ) (human, biotin on the Avi tag (BirA)).
T1 chain 1: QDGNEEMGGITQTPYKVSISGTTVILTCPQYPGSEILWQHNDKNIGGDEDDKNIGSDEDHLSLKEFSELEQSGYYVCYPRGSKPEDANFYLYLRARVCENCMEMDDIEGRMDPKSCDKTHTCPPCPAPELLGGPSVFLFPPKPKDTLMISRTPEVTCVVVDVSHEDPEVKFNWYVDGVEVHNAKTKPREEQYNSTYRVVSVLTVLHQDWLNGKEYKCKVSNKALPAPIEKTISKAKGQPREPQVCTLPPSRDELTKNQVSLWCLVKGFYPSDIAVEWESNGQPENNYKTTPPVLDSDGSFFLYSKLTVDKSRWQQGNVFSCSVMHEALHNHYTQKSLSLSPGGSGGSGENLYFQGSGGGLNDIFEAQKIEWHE
T1 chain 2: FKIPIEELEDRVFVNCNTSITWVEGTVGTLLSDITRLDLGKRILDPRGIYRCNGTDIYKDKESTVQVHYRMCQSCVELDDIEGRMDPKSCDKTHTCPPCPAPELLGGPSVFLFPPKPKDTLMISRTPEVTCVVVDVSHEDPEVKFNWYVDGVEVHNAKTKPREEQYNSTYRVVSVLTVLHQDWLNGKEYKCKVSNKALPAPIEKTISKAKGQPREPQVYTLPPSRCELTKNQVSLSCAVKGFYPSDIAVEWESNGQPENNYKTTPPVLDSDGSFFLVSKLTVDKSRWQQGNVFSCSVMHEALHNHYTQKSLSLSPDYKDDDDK
Briefly: BLI (Octet RED384), 37 C; biotinylated CD3εδ on streptavidin sensor, one-arm antibody in solution for 120 s. The procedure: (§1) Using an Octet RED 384 (ForteBio), a streptavidin sensor (ForteBio) was reacted with CD3εδ prepared at 0.2 μM in ACES at 37° C. for 300 seconds. […] Response values were extracted every three seconds, and graphs were depicted using Microsoft Excel 2013 (Microsoft).
(In general: Biolayer interferometry detects binding as a change in optical thickness at a sensor tip.)

In assay [2] the target is T2, Human CD3εδ heterodimer (soluble human CD3ε with FLAG tag / soluble human CD3δ with His tag) (human, UniProt P07766 22-126; P04234 22-105).
T2 construct: Positions are counted from 1, so the entries may include the signal peptides
Briefly: SPR (Biacore T200), BiAb captured on protein A, CD3εδ 0-15000 nM as analyte, 37 C. The procedure: (3) Evaluation of Binding Properties of Clamping Antibodies by SPR Using an Amine Coupling Kit (GE Healthcare), SuRe Protein A (GE Healthcare) Prepared at 25 μg/mL in Acetate4.5 (GE Healthcare) was Immobilized onto Sensor Chip CM4 at Approximately 1200 RU Per Flow Cell.
HBS-EP+(GE Healthcare) was used for the running buffer, and the measurement was carried out at 37° C. Each antibody was reacted at a flow rate of 10 μL/min for 60 seconds to capture 1000 RU, and analyte CD3εδ prepared at 0 nM, 4.8 nM, 24 nM, 120 nM, 600 nM, 3000 nM, or 15000 nM was allowed to act at a flow rate of 30 μL/min for 60 seconds to monitor the binding phase, and HBS-EP+ was passed at a flow rate of 30 μL/min for 120 seconds to monitor the dissociation phase. The sensor chip was regenerated by passing Glycine1.5 and 25 mM NaOH, each at a flow rate of 30 μL/min for 30 seconds. The dissociation constant KD (M) was calculated based on the association rate constant ka (1/Ms) and the dissociation rate constant kd (1/s), which are kinetic parameters calculated from the sensorgram obtained by the measurement. Biacore T200 Evaluation Software (GE Healthcare) was used for the calculation of each parameter.

Assay [3] deals with CD3 antibody CE115HA056 (CE115HA056-F760mnP17/GLS3000-k0). The assay can be described thus: SPR (Biacore), 37 C; ligand antibody captured on SuRe protein A chip (1000 RU), Fab as analyte at 100 nM for 180 s; amount of binding per 1 RU of ligand. Here is the method:
(§2) SuRe protein A (GE Healthcare) prepared at 25 μg/mL using Acetate4.5 (GE Healthcare) was immobilized on sensor chip CM4 at approximately 1000 RU per flow cell using an amine coupling kit (GE Healthcare).
(§3) First, to evaluate the binding specificity of the clamping antibodies, a ligand was reacted at 37° C. for 60 seconds at a flow rate of 10 μL/min to capture 1000 RU, and an analyte prepared at 100 nM was allowed to act for 180 seconds at a flow rate of 30 μL/min, and the amount of binding was measured.

Assay [4] concerns the target T3, CD3ε epitope-fused GPC3 antibody (hGC33VHGP01-rabCH1hG1m/hGC33VL-rabk).
T3 construct: control for recognition of the peptide alone
Described as above. Here is the method: as §2, §3

Assay [5] has as its target T4, negative control IC17 (IC17Hdk-F760mnP17/IC17L-k0).
T4 construct: also called anti-KLH antibody
The description is as above. The procedure: as §2, §3

Assay [6] addresses CD3 antibody CE115HA000 (CE115HA000-F760mnP17/GLS3000-k0). The description is as above. The procedure:
as §2, §3

Assay [7] deals with CD3 antibody CE115HA146 (CE115HA146-F760mnP17/GLS3000-k0). Described as above. Here is the method: as §2, §3
Sequence of CD3 antibody CE115HA146 (CE115HA146-F760mnP17/GLS3000-k0) (heavy, as listed by the source): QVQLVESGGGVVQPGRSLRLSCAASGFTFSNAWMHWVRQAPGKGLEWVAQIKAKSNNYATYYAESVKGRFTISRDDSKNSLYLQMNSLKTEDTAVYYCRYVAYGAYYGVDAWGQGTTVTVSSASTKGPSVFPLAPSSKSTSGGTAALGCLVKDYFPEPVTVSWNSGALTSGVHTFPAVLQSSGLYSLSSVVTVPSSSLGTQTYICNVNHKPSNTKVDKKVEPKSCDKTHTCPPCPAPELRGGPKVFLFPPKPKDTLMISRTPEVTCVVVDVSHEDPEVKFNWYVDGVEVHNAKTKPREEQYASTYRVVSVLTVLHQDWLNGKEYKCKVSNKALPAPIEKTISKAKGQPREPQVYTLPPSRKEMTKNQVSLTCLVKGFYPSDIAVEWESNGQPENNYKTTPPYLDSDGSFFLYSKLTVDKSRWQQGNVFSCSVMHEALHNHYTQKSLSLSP
The target of assay [8] is T1, Biotinylated human CD3εδ heterodimer …. Briefly: BLI (Octet RED384); CD3εδ on streptavidin sensor, IC17 one arm for 120 s, then 1 µM Fab in HBS-EP+ for 120 s. Here is the method:
as §1

The target in assay [9] is T5, CD3ε epitope-fused CE115HA146 (CE115HAGP13-rabIgG/GLS3000-rabk).
T5 construct: stands for the antigen/antibody complex; Rabbit constant regions; also called CE115HAPG13
T5 sequence (heavy, as listed by the source, chain 1 of 2): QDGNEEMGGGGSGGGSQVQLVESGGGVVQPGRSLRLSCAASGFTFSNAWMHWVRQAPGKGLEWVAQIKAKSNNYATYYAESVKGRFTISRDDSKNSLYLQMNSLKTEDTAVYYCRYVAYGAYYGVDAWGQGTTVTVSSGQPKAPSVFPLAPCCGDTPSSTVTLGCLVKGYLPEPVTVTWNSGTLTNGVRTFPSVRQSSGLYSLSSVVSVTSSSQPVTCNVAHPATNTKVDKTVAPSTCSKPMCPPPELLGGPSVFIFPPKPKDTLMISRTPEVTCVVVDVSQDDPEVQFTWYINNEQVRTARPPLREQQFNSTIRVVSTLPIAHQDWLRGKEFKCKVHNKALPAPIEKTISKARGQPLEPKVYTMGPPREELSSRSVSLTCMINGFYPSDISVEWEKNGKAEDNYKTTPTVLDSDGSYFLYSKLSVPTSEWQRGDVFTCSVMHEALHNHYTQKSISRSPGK
T5 sequence (light, as listed by the source, chain 2 of 2): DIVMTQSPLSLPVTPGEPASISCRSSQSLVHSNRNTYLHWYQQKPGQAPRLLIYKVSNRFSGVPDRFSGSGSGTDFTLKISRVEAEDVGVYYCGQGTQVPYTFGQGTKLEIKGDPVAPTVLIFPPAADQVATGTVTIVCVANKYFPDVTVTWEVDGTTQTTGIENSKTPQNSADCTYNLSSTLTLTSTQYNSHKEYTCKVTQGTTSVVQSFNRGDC
The assay can be described thus: SPR (Biacore T200), ligand captured on protein A, Fab 0-400 nM as analyte, 37 C. Here is the method:
as §2
(§4) The sensor chip was regenerated by passing Glycine1.5 and 25 mM NaOH, each at a flow rate of 30 μL/min for 15 seconds. The dissociation constant KD (M) was calculated based on the association rate constant ka (1/Ms) and the dissociation rate constant kd (1/s), which are kinetic parameters calculated from the sensorgram obtained by the measurement. Biacore T200 Evaluation Software (GE Healthcare) was used for calculation of each parameter.

Assay [10] deals with T6, CD3ε epitope-fused CE115HA056 (CE115HAGP12-rabIgG/GLS3000-rabk).
T6 construct: rabbit constant regions; also called CE115HAPG12
T6 sequence (heavy, as listed by the source, chain 1 of 2): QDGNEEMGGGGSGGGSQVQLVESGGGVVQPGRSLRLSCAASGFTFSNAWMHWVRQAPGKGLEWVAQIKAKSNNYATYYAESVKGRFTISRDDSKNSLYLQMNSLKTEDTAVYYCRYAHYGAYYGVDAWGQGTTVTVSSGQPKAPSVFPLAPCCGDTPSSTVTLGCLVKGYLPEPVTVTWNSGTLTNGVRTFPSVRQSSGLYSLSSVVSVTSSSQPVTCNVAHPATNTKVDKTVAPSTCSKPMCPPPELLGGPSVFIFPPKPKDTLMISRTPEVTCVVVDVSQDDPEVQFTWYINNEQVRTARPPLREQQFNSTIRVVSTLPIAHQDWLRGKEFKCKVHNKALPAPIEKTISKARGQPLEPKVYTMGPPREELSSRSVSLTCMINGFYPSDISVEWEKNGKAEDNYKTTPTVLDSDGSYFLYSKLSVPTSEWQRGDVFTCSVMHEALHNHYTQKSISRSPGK
T6 sequence (light, as listed by the source, chain 2 of 2): as the sequence (light, as listed by the source, chain 2 of 2) above
The description is as above. The procedure: as §2, §4

Sequence of CD3 antibody CE115HA056 (CE115HA056-F760mnP17/GLS3000-k0) (heavy, as listed by the source): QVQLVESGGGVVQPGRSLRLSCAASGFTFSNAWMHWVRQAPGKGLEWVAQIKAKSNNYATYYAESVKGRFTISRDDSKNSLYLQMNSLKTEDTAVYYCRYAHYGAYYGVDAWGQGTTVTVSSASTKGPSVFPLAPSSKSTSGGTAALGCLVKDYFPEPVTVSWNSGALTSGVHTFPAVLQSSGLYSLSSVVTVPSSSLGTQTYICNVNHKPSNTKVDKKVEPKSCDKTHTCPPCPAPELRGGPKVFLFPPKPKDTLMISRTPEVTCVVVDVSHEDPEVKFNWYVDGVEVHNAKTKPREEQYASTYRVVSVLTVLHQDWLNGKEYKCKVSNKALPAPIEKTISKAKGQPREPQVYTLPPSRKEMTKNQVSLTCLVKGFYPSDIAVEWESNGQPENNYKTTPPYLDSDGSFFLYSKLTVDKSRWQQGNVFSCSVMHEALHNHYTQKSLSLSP
T3 sequence (VH, as listed by the source, chain 1 of 2): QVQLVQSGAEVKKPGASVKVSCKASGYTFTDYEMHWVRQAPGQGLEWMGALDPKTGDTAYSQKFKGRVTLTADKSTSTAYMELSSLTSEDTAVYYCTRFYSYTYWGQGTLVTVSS
T3 sequence (VL, as listed by the source, chain 2 of 2): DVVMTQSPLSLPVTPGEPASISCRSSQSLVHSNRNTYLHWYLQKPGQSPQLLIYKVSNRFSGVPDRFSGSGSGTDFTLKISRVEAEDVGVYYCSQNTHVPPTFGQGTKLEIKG

B1: IC17 one arm (antibody, human IgG1, kappa, L234A L235A, N297A)
heavy chain (IC17Hdk-pE22Hh): QVQLQQSGPQLVRPGASVKISCKASGYSFTSYWMHWVNQRPGQGLEWIGMIDPSYSETRLNQKFKDKATLTVDKSSSTAYMQLSSPTSEDSAVYYCALYGNYFDYWGQGTTLTVSSASTKGPSVFPLAPSSKSTSGGTAALGCLVKDYFPEPVTVSWNSGALTSGVHTFPAVLQSSGLYSLSSVVTVPSSSLGTQTYICNVNHKPSNTKVDKKVEPKSCDKTHTCPPCPAPEAAGGPSVFLFPPKPKDTLMISRTPEVTCVVVDVSHEDPEVKFNWYVDGVEVHNAKTKPREEQYASTYRVVSVLTVLHQDWLNGKEYKCKVSNKALPAPIEKTISKAKGQPREPQVYTLPPSRCELTKNQVSLSCAVKGFYPSDIAVEWESNGQPENNYKTTPPVLDSDGSFFLVSKLTVDKSRWQQGNVFSCSVMHEALHNHYTQKSLSLSPDYKDDDDK
light chain (IC17L-k0): DIQMTQSSSSFSVSLGDRVTITCKASEDIYNRLAWYQQKPGNAPRLLISGATSLETGVPSRFSGSGSGKDYTLSITSLQTEDVATYYCQQYWSTPYTFGGGTKLEVKRTVAAPSVFIFPPSDEQLKSGTASVVCLLNNFYPREAKVQWKVDNALQSGNSQESVTEQDSKDSTYSLSSTLTLSKADYEKHKVYACEVTHQGLSSPVTKSFNRGEC
antibody fragment having no variable region (Kn010): not shown
notes: also called negative control anti-KLH antibody IC17 one arm (IC17Hdk-pE22Hh/IC17L-k0//Kn010)
As for B1, in assay [1], the binding result is reported as “no binding”.

B2: BiAb of CE115HA000-BS03a/GLS3000-k0 with the IC17 arm (bispecific antibody, human IgG1, kappa, N297A)
heavy 1: QVQLVESGGGVVQPGRSLRLSCAASGFTFSNAWMHWVRQAPGKGLEWVAQIKAKSNNYATYYAESVKGRFTISRDDSKNSLYLQMNSLKTEDTAVYYCRYVHYGAYYGVDAWGQGTTVTVSSASTKGPSVFPLAPSSRSTSESTAALGCLVKDYFPEPVTVSWNSGALTSGVHTFPAVLQSSGLYSLSSVVTVPSSSLGTKTYTCNVDHKPSNTKVDKRVEPKSCDKTHTCPPCPAPELRRGPKVFLFPPKPKDTLMISRTPEVTCVVVDVSQEDPEVQFNWYVDGVEVHNAKTKPREEQFASTYRVVSVLTVLHQDWLNGKEYKCKVSNKGLPSSIEKTISKAKGQPREPQVYTLPPSREEMTKNQVSLTCLVKGFYPSDIAVEWESNGQPENNYKTTPPYLDSDGSFFLYSKLTVDKSRWQQGNVFSCSVMHEALHNHYTQESLSLSP
light 1: DIVMTQSPLSLPVTPGEPASISCRSSQSLVHSNRNTYLHWYQQKPGQAPRLLIYKVSNRFSGVPDRFSGSGSGTDFTLKISRVEAEDVGVYYCGQGTQVPYTFGQGTKLEIKRTVAAPSVFIFPPSDEQLKSGTASVVCLLNNFYPREAKVQWKVDNALQSGNSQESVTEQDSKDSTYSLSSTLTLSKADYEKHKVYACEVTHQGLSSPVTKSFNRGEC
heavy 2: QVQLQQSGPQLVRPGASVKISCKASGYSFTSYWMHWVNQRPGQGLEWIGMIDPSYSETRLNQKFKDKATLTVDKSSSTAYMQLSSPTSEDSAVYYCALYGNYFDYWGQGTTLTVSSASTKGPSVFPLAPSSRSTSESTAALGCLVKDYFPEPVTVSWNSGALTSGVHTFPAVLQSSGLYSLSSVVTVPSSSLGTKTYTCNVDHKPSNTKVDKRVEPKSCDKTHTCPPCPAPELRRGPKVFLFPPKPKDTLMISRTPEVTCVVVDVSQEDPEVQFNWYVDGVEVHNAKTKPREEQFASTYRVVSVLTVLHQDWLNGKEYKCKVSNKGLPSSIEKTISKAKGQPREPQVYTLPPSREEMTKNQVSLTCLVKGFYPSDIAVEWESNGQPENNYKTTPPYLDSDGSFFLYSKLTVDKSRWQQGNVFSCSVMHEALHNHYTQESLSLSP
light 2: B1 light chain (IC17L-k0)
notes: how the CE115/IC17 BiAb was made is not described
B2 registered a Kd in [2] of 350 nM.

B3: BiAb of CE115HA056-BS03a/GLS3000-k0 with the IC17 arm (bispecific antibody, human IgG1, kappa, N297A)
heavy 1: B2 heavy 1 with V101A
light 1: B2 light 1
heavy 2: B2 heavy 2
light 2: B1 light chain (IC17L-k0)
notes: See m38 on the IC17 arm
On to B3, for which binding in assay [2] was put at a Kd of 7400 nM. Against the preceding molecule, the Kd is about 21-fold higher.

B4: CLA0334 Fab fragment (from CLA0334VH-F760mnP17/CLA0334VL-k0C) (Fab, V domains shown)
VH: QEQLEESGGDLVKPEGSLTLTCTASGFSLSVSYWICWVRQAPGKGLEWIACIYAGSTGSTWYANWAKGRFTISKTSSTTVTLQMTSLTAADTATYFCARDSGWNAFDLWGPGTLVTVSS
VL: DVVMTQTPASVSAAVGGTVTIKCQASQSIGSNLAWYQQKSGHPPNLLIYEASGLASGVPLRFSGSGSGTQFTLTISDLECADAATYYCQSYYYSPSVSVHYAFGGGTEVVVKR
notes: Fab prepared from the full antibody with the Pierce Fab Preparation Kit; also called clamping antibody CLA0334
On to B4, for which the binding result was “no binding (tested: 100 nM)” in [3]; “no binding (tested: 100 nM)” in assay [4]; “no binding (tested: 100 nM)” in assay [5]; “no binding (tested: 100 nM)” in [6]; “no binding (tested: 100 nM)” in assay [7]; “no binding (tested: 1 µM)” in assay [8]. Further, the Kd in assay [9] came out at 150 nM; in [10], 110 nM.

In general, Kd refers to a measure of binding affinity in units of concentration. A higher Kd goes with a looser complex.
